According to the FLAb antibody collection (doi:10.7554/elife.23156):

B1: scFv; the commonest letter at each place (parent)
chain 1: EVKLDETGGGLVQPGRPMKLSCVASGFTFSDYWMNWVRQSPEKGLEWVAQIRNKPYNYETYYSDSVKGRFTISRDDSKSSVYLQMNNLRVEDMGIYYCTGSYYGMDYWGQGTSVTVS
chain 2: DVVMTQTPLSLPVSLGDQASISCRSSQSLVHSNGNTYLRWYLQKPGQSPKVLIYKVSNRFSGVPDRFSGSGSGTDFTLKISRVEAEDLGVYFCSQSTHVPWTFGGGTKLEIK

Experiments:
fluorescein = variants of: B1; assay: Kd (Tite-Seq); settings: with fluorescein; format: scFv 4-4-20, heavy + light
[1] = variants of: B1; assay: yeast surface expression (ratio to wild type); higher = more expressed; settings: format: scFv 4-4-20, heavy + light

Variant | Kd (fluorescein) | yeast surface expression [1]
chain 1 EVKLDETGGGLVQPGRPMKLSCVASGFTFSDYHMNWFRQSPEKGLEWVAQIRNKPYNYETYYSDSVKGRFTISRDDSKSSVYLQMNNLRVEDMGIYYCTGSYYGMDYWGQGTSVTVS chain 2 DVVMTQTPLSLPVSLGDQASISCRSSQSLVHSNGNTYLRWYLQKPGQSPKVLIYKVSNRFSGVPDRFSGSGSGTDFTLKISRVEAEDLGVYFCSQSTHVPWTFGGGTKLEIK [chain 1 W33H V37F] | ≥ 10 µM | 0.859
chain 1 EVKLDETGGGLVQPGRPMKLSCVASGFTFSDYIMNWVRQSPEKGLEWVAQIRNKPYNYETYYSDSVKGRFTISRDDSKSSVYLQMNNLRVEDMGIYYCTGSYYGMDYWGQGTSVTVS chain 2 DVVMTQTPLSLPVSLGDQASISCRSSQSLVHSNGNTYLRWYLQKPGQSPKVLIYKVSNRFSGVPDRFSGSGSGTDFTLKISRVEAEDLGVYFCSQSTHVPWTFGGGTKLEIK [chain 1 W33I] | ≥ 10 µM | 0.854
chain 1 EVKLDETGGGLVQPGRPMKLSCVASGFTFSDYIFNWVRQSPEKGLEWVAQIRNKPYNYETYYSDSVKGRFTISRDDSKSSVYLQMNNLRVEDMGIYYCTGSYYGMDYWGQGTSVTVS chain 2 DVVMTQTPLSLPVSLGDQASISCRSSQSLVHSNGNTYLRWYLQKPGQSPKVLIYKVSNRFSGVPDRFSGSGSGTDFTLKISRVEAEDLGVYFCSQSTHVPWTFGGGTKLEIK [chain 1 W33I M34F] | ≥ 10 µM | 1
chain 1 EVKLDETGGGLVQPGRPMKLSCVASGFTFSDYIMWWVRQSPEKGLEWVAQIRNKPYNYETYYSDSVKGRFTISRDDSKSSVYLQMNNLRVEDMGIYYCTGSYYGMDYWGQGTSVTVS chain 2 DVVMTQTPLSLPVSLGDQASISCRSSQSLVHSNGNTYLRWYLQKPGQSPKVLIYKVSNRFSGVPDRFSGSGSGTDFTLKISRVEAEDLGVYFCSQSTHVPWTFGGGTKLEIK [chain 1 W33I N35W] | ≥ 10 µM | 0.803
chain 1 EVKLDETGGGLVQPGRPMKLSCVASGFTFSDYIMYWCRQSPEKGLEWVAQIRNKPYNYETYYSDSVKGRFTISRDDSKSSVYLQMNNLRVEDMGIYYCTGSYYGMDYWGQGTSVTVS chain 2 DVVMTQTPLSLPVSLGDQASISCRSSQSLVHSNGNTYLRWYLQKPGQSPKVLIYKVSNRFSGVPDRFSGSGSGTDFTLKISRVEAEDLGVYFCSQSTHVPWTFGGGTKLEIK [chain 1 W33I N35Y V37C] | ≥ 10 µM | 0.443

Now from value to variant, other results behind:

Kd (fluorescein) | Variant | yeast surface expression [1]
≥ 10 µM | chain 1 EVKLDETGGGLVQPGRPMKLSCVASGFTFSDYIMNWSRQSPEKGLEWVAQIRNKPYNYETYYSDSVKGRFTISRDDSKSSVYLQMNNLRVEDMGIYYCTGSYYGMDYWGQGTSVTVS chain 2 DVVMTQTPLSLPVSLGDQASISCRSSQSLVHSNGNTYLRWYLQKPGQSPKVLIYKVSNRFSGVPDRFSGSGSGTDFTLKISRVEAEDLGVYFCSQSTHVPWTFGGGTKLEIK [chain 1 W33I V37S] | 0.617
≥ 10 µM | chain 1 EVKLDETGGGLVQPGRPMKLSCVASGFTFSDYKMNWVRQSPEKGLEWVAQIRNKPYNYETYYSDSVKGRFTISRDDSKSSVYLQMNNLRVEDMGIYYCTGSYYGMDYWGQGTSVTVS chain 2 DVVMTQTPLSLPVSLGDQASISCRSSQSLVHSNGNTYLRWYLQKPGQSPKVLIYKVSNRFSGVPDRFSGSGSGTDFTLKISRVEAEDLGVYFCSQSTHVPWTFGGGTKLEIK [chain 1 W33K] | 0.699
≥ 10 µM | chain 1 EVKLDETGGGLVQPGRPMKLSCVASGFTFSDYKTNWVRQSPEKGLEWVAQIRNKPYNYETYYSDSVKGRFTISRDDSKSSVYLQMNNLRVEDMGIYYCTGSYYGMDYWGQGTSVTVS chain 2 DVVMTQTPLSLPVSLGDQASISCRSSQSLVHSNGNTYLRWYLQKPGQSPKVLIYKVSNRFSGVPDRFSGSGSGTDFTLKISRVEAEDLGVYFCSQSTHVPWTFGGGTKLEIK [chain 1 W33K M34T] | 0.893
0.345 µM | chain 1 EVKLDETGGGLVQPGRPMKLSCVASGFTFSDYKMNWLRQSPEKGLEWVAQIRNKPYNYETYYSDSVKGRFTISRDDSKSSVYLQMNNLRVEDMGIYYCTGSYYGMDYWGQGTSVTVS chain 2 DVVMTQTPLSLPVSLGDQASISCRSSQSLVHSNGNTYLRWYLQKPGQSPKVLIYKVSNRFSGVPDRFSGSGSGTDFTLKISRVEAEDLGVYFCSQSTHVPWTFGGGTKLEIK [chain 1 W33K V37L] | 0.761
≥ 10 µM | chain 1 EVKLDETGGGLVQPGRPMKLSCVASGFTFSDYKMNYVRQSPEKGLEWVAQIRNKPYNYETYYSDSVKGRFTISRDDSKSSVYLQMNNLRVEDMGIYYCTGSYYGMDYWGQGTSVTVS chain 2 DVVMTQTPLSLPVSLGDQASISCRSSQSLVHSNGNTYLRWYLQKPGQSPKVLIYKVSNRFSGVPDRFSGSGSGTDFTLKISRVEAEDLGVYFCSQSTHVPWTFGGGTKLEIK [chain 1 W33K W36Y] | 0.396
≥ 10 µM | chain 1 EVKLDETGGGLVQPGRPMKLSCVASGFTFSDYLMNWVRQSPEKGLEWVAQIRNKPYNYETYYSDSVKGRFTISRDDSKSSVYLQMNNLRVEDMGIYYCTGSYYGMDYWGQGTSVTVS chain 2 DVVMTQTPLSLPVSLGDQASISCRSSQSLVHSNGNTYLRWYLQKPGQSPKVLIYKVSNRFSGVPDRFSGSGSGTDFTLKISRVEAEDLGVYFCSQSTHVPWTFGGGTKLEIK [chain 1 W33L] | 0.824
1.47 µM | chain 1 EVKLDETGGGLVQPGRPMKLSCVASGFTFSDYLMNWDRQSPEKGLEWVAQIRNKPYNYETYYSDSVKGRFTISRDDSKSSVYLQMNNLRVEDMGIYYCTGSYYGMDYWGQGTSVTVS chain 2 DVVMTQTPLSLPVSLGDQASISCRSSQSLVHSNGNTYLRWYLQKPGQSPKVLIYKVSNRFSGVPDRFSGSGSGTDFTLKISRVEAEDLGVYFCSQSTHVPWTFGGGTKLEIK [chain 1 W33L V37D] | 0.591
